Measured values taken from publication PMC12753105.

Columns and labels:
[1] = target: SARS-CoV-2 N-protein N:G215C (reduced), full length (SARS-CoV-2) (UniProt P0DTC9); experiment: AUC
[2] = target: SARS-CoV-2 N-protein N:G215C (reduced), full length (SARS-CoV-2) (UniProt P0DTC9); experiment: mass photometry
[3] = target: SARS-CoV-2 N-protein N:G215C* (oxidized), full length (SARS-CoV-2) (UniProt P0DTC9); experiment: mass photometry
[4] = target: SARS-CoV-2 N-protein Nο (N:P13L/Δ31–33/R203K/G204R), full length (SARS-CoV-2) (UniProt P0DTC9); experiment: mass photometry
[5] = target: SARS-CoV-2 N-protein N:R203K/G204R, full length (SARS-CoV-2) (UniProt P0DTC9); experiment: mass photometry

SARS-CoV-2 N-protein N:G215C (reduced), full length (from UniProt P0DTC9 1-419) (natural protein)
Kd [1]: 1000 nM | best-fit effective RNP life-time (with SL7 RNA) [2]: 231 s

SARS-CoV-2 N-protein N:G215C* (oxidized), full length (from UniProt P0DTC9 1-419) (natural protein)
best-fit effective RNP life-time (with SL7 RNA) [3]: 41.8 s

SARS-CoV-2 N-protein Nο (N:P13L/Δ31–33/R203K/G204R), full length (from UniProt P0DTC9 1-419) (natural protein)
best-fit effective RNP life-time (with SL7 RNA) [4]: 58.5 s

SARS-CoV-2 N-protein N:R203K/G204R, full length (from UniProt P0DTC9 1-419) (natural protein)
best-fit effective RNP life-time (with SL7 RNA) [5]: 54.6 s
